Biological target: tick-borne encephalitis virus capsid protein (tick-borne encephalitis virus, strain Kuutsalo-14)
Assay: cross-linking

“tick-borne encephalitis virus capsid protein (natural protein)” was tested, and the stoichiometry N was 2.

From doi:10.1101/2021.10.29.464531
